Laboratory results taken from paper PMC12574954 (2025).

T1: thermolysin-generated VSV Gect (aa residues 1-422) (Vesicular stomatitis virus, UniProt P0C2X0 17-438)
T1 chain: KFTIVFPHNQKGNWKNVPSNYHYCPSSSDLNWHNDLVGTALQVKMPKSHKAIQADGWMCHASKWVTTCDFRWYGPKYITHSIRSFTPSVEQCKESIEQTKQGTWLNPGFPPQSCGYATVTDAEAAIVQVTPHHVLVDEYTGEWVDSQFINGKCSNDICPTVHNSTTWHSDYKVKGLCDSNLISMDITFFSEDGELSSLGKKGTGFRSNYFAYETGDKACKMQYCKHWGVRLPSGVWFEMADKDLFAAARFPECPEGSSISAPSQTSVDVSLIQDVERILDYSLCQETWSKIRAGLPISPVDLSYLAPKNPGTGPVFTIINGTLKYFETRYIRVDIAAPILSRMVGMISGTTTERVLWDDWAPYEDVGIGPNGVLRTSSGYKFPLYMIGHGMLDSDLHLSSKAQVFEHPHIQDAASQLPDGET


Target: T1, thermolysin-generated VSV Gect (aa …)
Assay: BLI

Binder	Kd [pM]
recombinant Fab 8G5F11 (Fab, V domains shown) VH: DVQLQESGPDLVKPSQSLSLTCTVTGYSITSGYSWHWNRQFPGNKLEWMGYIHYSGLTNYNPSLKSRISITRHTSKNQFFLQLNSVTTEDTATYYCVRGGYDGRDYYAMDFWGQGTSVTVSS VL: DIVMTQSHKFMSTSVGDRVSITCKASQDVDNDVAWYQQKPGQSPKLLIYWASTRHTGVPDRFTGSGSGTDFTLTISDVQSEDLSDYFCQQYSSYPFTFGGGTRLEIK	720
monoclonal antibody 8G5F11 (antibody, V domains shown) VH: DVQLQESGPDLVKPSQSLSLTCTVTGYSITSGYSWHWNRQFPGNKLEWMGYIHYSGLTNYNPSLKSRISITRHTSKNQFFLQLNSVTTEDTATYYCVRGGYDGRDYYAMDFWGQGTSVTVSS VL: DIVMTQSHKFMSTSVGDRVSITCKASQDVDNDVAWYQQKPGQSPKLLIYWASTRHTGVPDRFTGSGSGTDFTLTISDVQSEDLSDYFCQQYSSYPFTFGGGTRLEIK	1010
